B1: KRT34 (parent)
chain: YQSYFKTIEELQQKILCAKAENAR
B2: RBBP5 (parent)
chain: TGTSNTTAIKSIEFARKGSCFLIN

Variants of: B1
Assay: protein stability index of a GFP-peptide fusion (GPS, HEK-293T) (PSI 1-6); higher = more stable
Details: c terminus: a fixed tail appended
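Also: lentivirally expressed fusions sorted by FACS into six bins by GFP to DsRed ratio, PSI derived from sequencing read proportions per bin multiplied by bin number.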

Protein stability index: each site, then its substitutions
K19: G 1.92, R 1.91, H 1.64, F 1.74, Q 2.62, L 2.93, Y 1.35, C 1.78, M 2.51, E 1.99, W 2.29, I 2.39
K14: C 1.2, D 1.23, V 1.98, F 2, R 1.77, H 1.99, M 1.46, I 1.52, S 2.27, L 2.62, E 2.61, W 3.3
T7: E 2.58, Y 2.24, F 1.81, G 1.96, D 2.44, L 1.64, S 3.16, K 1.58, I 1.84
A18: L 2.04, F 2.75, Y 2.16, G 1.78, C 2.5, D 2.16, N 2.07, K 1.99, R 1.68, I 2.04, H 1.53, W 2.73, E 1.45, Q 1.83
N22: M 1.59, R 1.43, D 2.54, T 2.4, K 2.22, S 2.46, Y 1.59
A20: Q 1.78, W 1.46, R 1.88, C 2.01, K 2.16
Q12: N 1.65, S 1.77, A 1.6, C 1.78, P 1.4, R 2.63, T 2.21
L11: A 1.79, I 2.13, C 2.56, Q 1.98, W 1.93, H 1.55, M 1.81, P 2.3, S 1.2, G 2.58, N 2.41, F 1.4, V 1.35, K 2.34
F5: C 2.24, Q 2.53, S 2.73, I 1.94, A 2.01, D 3.68, T 2.12, L 1.81, E 4.08, H 2.34, N 3.02
Q13: L 1.46, K 1.95, A 2.02, D 2.26, E 2.2, S 1.52, F 2.05
Y1: L 1.55, N 3.45, S 2.93, R 2.94, Q 3.45, C 2.23, K 2.88
E21: L 2.17, P 2.14, G 1.03, D 1.74, Y 1.27, M 1.26, F 1.17, T 2.05, S 1.96, K 1.99, A 2.93, V 2.42, C 2.38, I 1.29, Q 1.89
L16: R 2.02, I 1.67, Y 2.28, Q 1.66, G 2.02, E 2.63, F 1.6, T 1.72, K 1.92, P 1.41, A 1.8, M 1.89, N 1.75, S 1.97
E9: Y 1.64, P 1.29, L 1.53, D 2.25, K 2.2, T 1.84, Q 1.9, V 3.47, S 1.99, W 2.23, C 1.87, G 1.64, A 1.77
S3: C 1.96, L 1.77, R 1.79, E 1.67, Q 2.3, M 1.77
Y4: V 1.57, C 1.73, R 2.14, P 2.19, K 1.52, F 1.86, L 1.93, Q 2.65, N 2.21, A 2.2
Q2: G 2.12, R 2.25, K 2.54, I 1.57, M 2.14, F 2.53, E 3.07, T 1.59, S 2.5, N 2.28
A23: L 2.01, D 2.08, I 1.65, P 2.38, M 1.88, Q 2.17, F 2.72, V 1.32, C 1.39, H 2.93, K 2.17, S 2.05
R24: N 2.25, E 1.32, V 2.78, H 2.2, P 1.57, G 1.16, W 2.32, M 1.02, F 1.91, T 1.64
I8: Q 1.37, V 2.85, E 2.6, F 2.23, Y 2.52, K 2.47, C 1.57, W 1.42, S 1.77, H 1.62, P 2.24
I15: C 1.16, M 1.89, H 1.87, G 1.45, N 2.23, P 1.71, E 2.03, D 1.88
K6: D 2.01, M 2.1, W 2.18, Y 1.66, T 2.67, S 1.74, E 1.85, Q 2.53, H 2.24
C17: N 1.88, V 1.37, Q 2.56, M 2.11, R 2.42, K 2.51, F 1.97, A 2.56, P 2.25, E 2.39, Y 2.15, L 2.6
E10: K 1.81, G 1.7, C 1.44, I 1.96, P 1.93, D 1.61, W 1.72, H 1.69, V 2.04

Variants of: B2
Assay: as above
Details: c terminus: a fixed tail appended

Protein stability index, by site and new letter:
T3: S 1.9
I12: E 3.5, A 2.94
F21: C 2.44, W 2.25, M 3.52, V 2.75
N5: Y 1.63, D 2.35, M 1.66, T 2.09, C 1.93
G2: Y 3.22, D 2.62, C 2.17, A 2.02
G18: I 2.2, M 1.85, S 2.32
I9: S 2.12, F 1.98, G 2.37, T 2.92
T1: E 3.07, S 2.2, H 2.59, R 2.75
S4: M 2.21, Y 2.41
S19: D 3.72, F 1.61, G 1.93, L 2.56, P 2.04, C 2.67
T7: Y 1.89, H 1.97, F 1.93
N24: C 2.38
A15: P 2.46, M 1.94, T 1.79, I 1.63, C 1.89, S 2.09, W 2.23
T6: C 2.05, A 2.87, Q 2.12, S 2.64
S11: V 2.48, C 1.74, Y 1.32, I 3.31, Q 2.74, E 2.23
K10: N 1.86, P 2.38
A8: Q 2.21, K 2.2, I 1.74, D 2.36, Y 2.22
R16: F 2.26, G 2.42, K 2.76, C 1.77, S 2.44, N 3.21, M 1.75
L22: Y 2.54, Q 3.48
K17: W 2.11, I 1.29, E 2.6, S 2.47, R 2.7
F14: M 2.69, H 2.73
E13: D 2.32, F 2.75, K 2.19, V 1.54, R 1.72
I23: H 2.79, G 2.73, E 3.38
C20: L 2.25, T 2.56, N 3.03
